Laboratory results: patent US20200123264A1 (Regeneron, published 2020)

B1: H4H18464P2 (antibody, human IgG4, V domains shown)
VH: QVQLVQSGPEVKKPGASVKVSCKGSGYTFSWYGISWIRQAPGHGLEWMGWISASSGNTRFAQKVQGRLTMTTDTSTSTAYMELRSLRSDDTAVYYCARTGTRPFDYWGQGTLVTVSS
VL: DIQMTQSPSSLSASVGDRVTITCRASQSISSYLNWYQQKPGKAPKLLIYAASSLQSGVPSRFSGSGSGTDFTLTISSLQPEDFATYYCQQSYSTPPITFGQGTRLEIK
notes: H4H prefix: human IgG4 Fc
B2: H4H18440P2 (antibody, human IgG4, V domains shown)
VH: QVQLVESGGGMVKPGGSLRLSCAASGFTFSDYYMSWIRQAPGKGLEWISHISITGSTIYYADSVKGRFTISRDNAKNSLYLEMNRLRDEDTAVYYCTRDEPDIVLVRYGMDVWGQGTTVTVSS
VL: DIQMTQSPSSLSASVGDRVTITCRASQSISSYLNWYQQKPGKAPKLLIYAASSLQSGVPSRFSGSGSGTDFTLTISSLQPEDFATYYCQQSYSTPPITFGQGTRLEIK
notes: H4H prefix: human IgG4 Fc
B3: H4H18457P2 (antibody, human IgG4, V domains shown)
VH: EVQLVESGGSVVRPGESLRLSCAASGFTFDDYGMSWVRQAPGKGLEWVSGISWNGGITVYADSVKGRFTVSRDNAKNSLYLQMNSLRAEDTALYHCARARYGGADYWGQGTLVTVSS
VL: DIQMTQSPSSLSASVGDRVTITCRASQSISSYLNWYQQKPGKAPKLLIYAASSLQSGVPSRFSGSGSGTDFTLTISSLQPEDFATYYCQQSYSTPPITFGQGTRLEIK
notes: H4H prefix: human IgG4 Fc
B4: H4H17322P2 (antibody, human IgG4, V domains shown)
VH: QLQLQESGPGLVKPSETLSLTCTVSGASISSSRFYGGWIRQPPGKGLEWIGDIYYSGNTYYNPSLQSRVTISVDTSKNQFSLKLSSVTAADTAVYYCARHLMITFGGLIVEGFDIWGQGTMVTVSS
VL: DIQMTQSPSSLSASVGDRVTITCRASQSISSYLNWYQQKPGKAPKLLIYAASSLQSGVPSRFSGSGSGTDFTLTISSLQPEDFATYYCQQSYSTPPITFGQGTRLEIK
notes: H4H prefix: human IgG4 Fc
B5: H4H18437P2 (antibody, human IgG4, V domains shown)
VH: QVQLVESGGGVVQPGRSLRLSCAASGFTFSSYGIHWVRQAPGKGLEWVAVISYDGNNKYYADSVKGRFTISRDNSKNTLYLQMNSLRAEDTAVYYCAKDLFLEWLFHGMGVWGQGTTVTVSS
VL: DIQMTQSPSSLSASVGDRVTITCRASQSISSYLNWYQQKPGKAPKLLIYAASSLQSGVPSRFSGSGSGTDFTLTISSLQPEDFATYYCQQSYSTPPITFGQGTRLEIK
notes: H4H prefix: human IgG4 Fc
B6: H4H18439P2 (antibody, human IgG4, V domains shown)
VH: QLQLQESGPGLVKPSETLSLTCIVSGGDITSSSYYWNWIRQPPGKGLEWIGNIYYSGSTNYNPSLKSRVTISIDTSKSQFSLKLRSVTAADTAVYYCARLLRYFDWSKGYLDYWGQGTLVTVSS
VL: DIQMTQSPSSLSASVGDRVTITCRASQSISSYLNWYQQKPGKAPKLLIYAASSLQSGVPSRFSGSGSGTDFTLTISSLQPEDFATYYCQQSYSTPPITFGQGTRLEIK
notes: H4H prefix: human IgG4 Fc
B7: H4H18462P2 (antibody, human IgG4, V domains shown)
VH: EVQLVESGGDLVQPGRSLRLSCAASGFTFSSFAMSWVRQAPGRGLEWVSSLSDSGDNTYYADSVKGRFTISRDNSKNTLYLQMNNLRAEDTAVYYCAKDLFSGWLFHGFDVWGQGTMVTVSS
VL: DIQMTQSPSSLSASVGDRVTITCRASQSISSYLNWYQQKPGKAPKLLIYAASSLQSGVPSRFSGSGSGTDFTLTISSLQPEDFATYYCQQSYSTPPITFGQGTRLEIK
notes: H4H prefix: human IgG4 Fc
B8: H4H18466P2 (antibody, human IgG4, V domains shown)
VH: EVQLVESGGGLVQPGGSLRLSCTASGFTFSSYGLHWVRQAPGKGLEYVSSINHNGGSKYYADSVKGRFTISRDNSKNTLFLQMGSLKTEDMAVYYCARDLFLEWLFHGFDIWGQGTMVTVSS
VL: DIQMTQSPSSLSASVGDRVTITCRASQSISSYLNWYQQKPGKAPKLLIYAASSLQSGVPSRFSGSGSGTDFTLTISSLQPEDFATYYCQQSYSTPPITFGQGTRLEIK
notes: H4H prefix: human IgG4 Fc

Experiments:
Test in all cases: Luminex, myc-captured LEPR protein on beads, Ab 5 µg/mL
[1] = molecular target: T1, recombinant human LEPR extracellular domain expressed with a C-terminal myc-myc-hexahistidine tag (human, UniProt P48357 22-839)
T1 construct: Monomeric construct; also called hLEPR.MMH; hLEPR-MMH
Protocol: (§1) Aliquots of microspheres with immobilized anti-myc monoclonal antibodies, prepared as described above, were added individually to 1 mL of the each of these protein supernatants. The microspheres were gently mixed, incubated for two hours at 25° C., washed twice with 1 mL of DBPS, centrifuged to remove the supernatant and finally resuspended in 1 mL of DPBS buffer. Forty eight μL of anti-myc IgG coupled microspheres from individual reactions with full length human LEPR and with each of the human LEPR domain proteins were withdrawn and mixed together in 3.6 mL of PBS+20 mg/mL BSA+0.05% sodium azide (blocking buffer).
(§2) From this mixed pool, 75 μL of microspheres were plated per well on a 96 well filter plate (Millipore, Cat. No: MSBVN1250) and mixed with 25 μL of individual anti-human LEPR monoclonal antibodies (0.5 or 5 μg/mL), incubated for two hours at 25° C. and then washed twice with 200 μL of DPBS with 0.05% Tween 20 (washing buffer). […] After 30 minutes, the samples were washed twice with 200 μL of washing buffer and resuspended in 150 μL of wash buffer. The Median Fluorescence intensity (MFI) of the microspheres was measured in a Luminex Analyzer.

human LEPR CRH1 (D1)-MMH = molecular target: T2, human LEPR CRH1 (D1)-MMH (human, UniProt P48357 22-229, limits assumed)
T2 construct: domain: CRH1 (D1); Transiently expressed, captured from supernatant on anti-myc beads
T2 sequence (looked up): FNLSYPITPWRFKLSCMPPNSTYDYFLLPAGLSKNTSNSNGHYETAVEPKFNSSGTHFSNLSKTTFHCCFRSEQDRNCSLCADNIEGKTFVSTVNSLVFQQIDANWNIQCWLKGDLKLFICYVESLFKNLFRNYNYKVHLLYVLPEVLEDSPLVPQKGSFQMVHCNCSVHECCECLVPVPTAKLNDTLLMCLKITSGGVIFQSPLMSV
Protocol: as §1, §2

[2] = molecular target: T3, human LEPR CRH1 (D1,D2,D3)-MMH (human, UniProt P48357 22-427, limits assumed)
T3 construct: domain: CRH1-Ig (D1,D2,D3); Transiently expressed, captured from supernatant on anti-myc beads; also called CRH1-Ig (D1, D2, D3)
T3 sequence (looked up): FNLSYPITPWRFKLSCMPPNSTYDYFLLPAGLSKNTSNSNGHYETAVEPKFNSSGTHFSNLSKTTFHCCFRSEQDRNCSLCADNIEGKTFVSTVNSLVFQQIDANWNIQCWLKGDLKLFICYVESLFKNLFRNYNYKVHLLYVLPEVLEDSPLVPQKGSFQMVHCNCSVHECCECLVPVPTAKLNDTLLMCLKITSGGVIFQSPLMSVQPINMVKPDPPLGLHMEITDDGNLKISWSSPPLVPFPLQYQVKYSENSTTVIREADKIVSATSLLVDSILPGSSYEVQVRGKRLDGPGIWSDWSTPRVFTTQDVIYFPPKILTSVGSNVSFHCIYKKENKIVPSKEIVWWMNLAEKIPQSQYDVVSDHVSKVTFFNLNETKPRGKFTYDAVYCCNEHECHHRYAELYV
Protocol: as §1, §2

[3] = molecular target: T4, human LEPR CRH1-Ig (D2,D3)-MMH (human, UniProt P48357 230-427, limits assumed)
T4 construct: domain: CRH1-Ig (D2,D3); Transiently expressed, captured from supernatant on anti-myc beads
T4 sequence (looked up): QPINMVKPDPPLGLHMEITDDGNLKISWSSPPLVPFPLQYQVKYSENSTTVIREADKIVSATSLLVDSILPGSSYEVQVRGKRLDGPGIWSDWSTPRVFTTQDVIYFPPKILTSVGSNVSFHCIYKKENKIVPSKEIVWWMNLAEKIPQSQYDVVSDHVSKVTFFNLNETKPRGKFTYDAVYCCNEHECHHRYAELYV
Protocol: as §1, §2

[4] = molecular target: T5, human LEPR Ig-CRH2-FNIII-MMH (human, UniProt P48357 330-839, limits assumed)
T5 construct: domain: Ig-CRH2-FNIII; Transiently expressed, captured from supernatant on anti-myc beads
T5 sequence (looked up): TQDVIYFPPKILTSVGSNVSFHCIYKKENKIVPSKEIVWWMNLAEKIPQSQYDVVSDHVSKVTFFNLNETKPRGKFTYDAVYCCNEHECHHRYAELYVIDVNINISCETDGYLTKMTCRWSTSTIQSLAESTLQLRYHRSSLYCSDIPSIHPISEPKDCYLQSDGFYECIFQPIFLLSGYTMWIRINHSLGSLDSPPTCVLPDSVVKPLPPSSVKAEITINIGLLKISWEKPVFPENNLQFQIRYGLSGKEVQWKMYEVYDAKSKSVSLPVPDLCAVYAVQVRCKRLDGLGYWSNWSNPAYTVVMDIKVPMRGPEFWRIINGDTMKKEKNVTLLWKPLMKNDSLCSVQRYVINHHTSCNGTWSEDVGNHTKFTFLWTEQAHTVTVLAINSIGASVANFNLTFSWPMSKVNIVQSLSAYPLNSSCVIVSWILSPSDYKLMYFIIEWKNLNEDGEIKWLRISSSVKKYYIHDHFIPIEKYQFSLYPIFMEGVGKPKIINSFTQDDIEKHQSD
Protocol: as §1, §2

human LEPR Ig (D3)-MMH = molecular target: T6, human LEPR Ig (D3)-MMH (human, UniProt P48357 340-427, limits assumed)
T6 construct: domain: Ig (D3); Transiently expressed, captured from supernatant on anti-myc beads
T6 sequence (looked up): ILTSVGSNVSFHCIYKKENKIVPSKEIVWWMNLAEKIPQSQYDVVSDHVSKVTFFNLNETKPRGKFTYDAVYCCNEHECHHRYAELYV
Protocol: as §1, §2

Row | Binder | Luminex MFI [1] [MFI] | Luminex MFI (human LEPR CRH1 (D1)-MMH) [MFI] | Luminex MFI [2] [MFI] | Luminex MFI [3] [MFI] | Luminex MFI [4] [MFI] | Luminex MFI (human LEPR Ig (D3)-MMH) [MFI]
1 | B1 | 9380 | 13 | 5560 | 3740 | 15100 | –
2 | B2 | 7040 | 8 | 8240 | 9160 | 32 | 14
3 | B3 | 7500 | 13 | 31 | 43 | 13200 | 18
4 | B4 | 8930 | 14 | 31 | 58 | 15100 | 26
5 | B5 | 8640 | 21 | 34 | 43 | 15600 | 26
6 | B6 | 5470 | 11 | 8020 | 10000 | 43 | 18
7 | B7 | 5850 | 5380 | 3960 | 47 | 14900 | 21
8 | B8 | 5070 | 15 | – | 76 | 11300 | 26
